Patent US10704056B2, “Constitutively active ABA receptor mutants” (The Regents of the University of California, priority 2011, dated 2020)

Tests used:
[1] = system: ABA-regulated genes Em6, LEA and Rd29b; assay: qRT-PCR of ABA-regulated genes in imbibed seeds; assay type: in vivo, Arabidopsis; details: seeds imbibed 32 hours, no ABA treatment; 35S-driven lines
Method: To investigate if other ABA responses are affected in the PYL2^CA3 lines, we profiled the expression levels of several ABA-regulated genes using quantitative RT-PCR (qRT-PCR). For these experiments, seeds of Col, 35S::PYL2, and two independent 35S:: PYL2^CA3 transgenic lines were imbibed for 32 hours in either water or 5 μM ABA at room temperature under continuous illumination, after which RNA was isolated using Concert™ Plant RNA Reagent and utilized in qRT-PCR reactions using primers for the ABA-regulated genes Em6 (At2g40170), LEA (At2g21490), and Rd29b (At5g52300). Biological duplicates with triple technical replicate measurements were conducted and gene expression levels were determined. […] Real-time quantitative PCR analysis was performed by ΔΔCt method of relative quantification. […]
Wild type or transgenic lines were imbibed for 32 hours in either water or 5 μM ABA at room temperature under continuous illumination, after which RNA was isolated using Concert™ Plant RNA Reagent followed by LiCl2 precipitation and DNase treated using RNase-free DNAse (Ambion). […] Biological duplicates with triple technical replicate measurements were conducted and gene expression levels were determined. […] Real-time quantitative PCR analysis was performed by ΔΔCt method of relative quantification. […]

aba2-1 mutant seeds = assay: Germination of aba2-1 background seeds on paclobutrazol or NaCl; assay type: in vivo, Arabidopsis; details: 35S-driven transgene, germination 72 hours
Description: As a further test of the ability of PYL2^CA3 to activate ABA signaling in vivo, we examined the ability of this allele to revert phenotypes caused by ABA deficiency, reasoning that effective activation of the ABA pathway should suppress phenotypes observed in the aba2 mutant. […] To test this, we examined the germination of various genotypes on paclobutrazol, an inhibitor of GA biosynthesis. Wild-type seed germination is blocked by paclobutrazol treatment but aba2 mutants germinate due to defects in ABA-induced seed dormancy. We also examined the germination of various genotypes in the presence of NaCl, which, like paclobutrazole, inhibits seed germination in an ABA- and aba2-dependent manner (Gonzalez-Guzman M. et al. (2002) Plant Cell 14(8):1833-1846; Leon-Kloosterziel K M, et al. (1996) Plant J 10 (4):655-661). […] Thus, expression of PYL2^CA3 in developing seeds is sufficient to activate an ABA-dependent physiological process despite the depleted ABA levels present in the aba2 background.
Germination tests on paclobutrazol (Wako Chemicals, Japan) and NaCl were conducted as following. Columbia, aba2-1, aba2-1; 35S::GFP-PYL2 and aba2-1; 35S::GFP-PYL2″^3 seeds were surface sterilized and plated onto ⅓ MS agar media containing 25, 50 or 100 μM paclobutrazol or 0, 50, 200, 250 mM NaCl. Control wells contained ⅓ MS agar and 0.1% DMSO, the carrier solvent for paclobutrazol. The seeds were stratified for four days in darkness and then transferred to continuous illumination at room temperature (23° C.). Germination was assayed after 72 hours; seeds showing radicals at least ½ seed length or greater were scored as positive. Each experiment was performed in triplicate; experiments were performed on seeds that were ˜6-months post-harvest.

B1: PYL2^CA3: PYL2 mutant (H65P, V87F, F165V); expressed in plants as 35S-driven GFP fusion (protein)
chain: HHHHHHMSSSPAVKGLTDEEQKTLEPVIKTYHQFEPDPTTCTSLITQRIHAPASVVWPLIRRFDNPERYKPFVKRCRLISGDGDVGSVREVTFISGLPASTSTERLEFVDDDHRVLSFRVVGGEHRLKNYKSVTSVNEFLNQDSGKVYTVVLESYTVDIPEGNTEEDTKMVVDTVVKLNLQKLGVAATSAPMHDDE
- levels of ABA-regulated genes (Em6, LEA, Rd29b) [1]: elevated levels of ABA-regulated genes
- NaCl resistance of aba2 mutant seed germination (aba2-1 mutant seeds): suppressed
- paclobutrazol resistance of aba2 mutant seed germination (aba2-1 mutant seeds): suppressed
